Data as given in patent publication US20020164759A1 (UNIVERSITY OF GEORGIA RESEARCH FOUNDATION, published 2002).

Key:
[1] = target: Porphyromonas gingivalis dipeptidylpeptidase-7 (DPP-7), purified from strain HG66 (Porphyromonas gingivalis) (UniProt B2RKV3); test: cell-based or functional assay
[2] = target: T1, Porphyromonas gingivalis dipeptidylpeptidase-7 (DPP-7), purified from strain HG66 (Porphyromonas gingivalis, UniProt B2RKV3 24-712); test: cell-based or functional assay
T1 sequence: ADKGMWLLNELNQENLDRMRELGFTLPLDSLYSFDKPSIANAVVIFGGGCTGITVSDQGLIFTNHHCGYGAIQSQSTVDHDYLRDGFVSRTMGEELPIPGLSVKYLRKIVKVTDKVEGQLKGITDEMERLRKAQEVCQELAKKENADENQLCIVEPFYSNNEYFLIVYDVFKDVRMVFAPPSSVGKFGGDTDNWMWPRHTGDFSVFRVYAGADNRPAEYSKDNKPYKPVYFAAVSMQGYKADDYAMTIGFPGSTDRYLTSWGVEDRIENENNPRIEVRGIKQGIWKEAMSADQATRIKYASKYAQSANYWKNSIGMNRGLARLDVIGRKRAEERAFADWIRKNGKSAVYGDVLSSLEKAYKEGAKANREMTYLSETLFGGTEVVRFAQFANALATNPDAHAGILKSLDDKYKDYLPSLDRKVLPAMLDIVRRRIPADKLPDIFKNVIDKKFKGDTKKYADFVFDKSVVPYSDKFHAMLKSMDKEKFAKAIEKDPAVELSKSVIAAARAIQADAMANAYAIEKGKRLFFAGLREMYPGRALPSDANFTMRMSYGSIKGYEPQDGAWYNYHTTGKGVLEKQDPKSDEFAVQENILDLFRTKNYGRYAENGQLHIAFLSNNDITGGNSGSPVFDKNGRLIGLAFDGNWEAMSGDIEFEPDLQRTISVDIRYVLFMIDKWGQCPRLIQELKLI

[3] = target: T2, Phe-Leu-Arg-Glu-Pro-Val-Ile-Phe-Leu (SEQ ID NO:13)
T2 chain: FLREPVIFL

[4] = target: T3, Lys-Ile-Ala-Gly-Tyr-His-Leu-Glu-Leu (SEQ ID NO:12)
T3 chain: KIAGYHLEL

[5] = target: carboxymethylated lysosyme
[6] = target: T4, Ser-Pro-Tyr-Ser-Ser-Glu-Thr-Thr (SEQ ID NO:15)
T4 chain: SPYSSETT

[7] = target: T5, Trp-His-Trp-Leu-Glu-Leu-Lys-Pro-Gly-Glu-Pro-Met-Tyr (SEQ ID NO:14)
T5 chain: WHWLELKPGEPMY

[8] = target: T6, Trp-Ala-Gly-Gly-Asp-Ala-Ser-Gly-Glu (SEQ ID NO:10)
T6 chain: WAGGDASGE

[9] = target: T7, Ala-Pro-Val-Arg-Ser-Leu (SEQ ID NO:16)
T7 chain: APVRSL

[10] = target: T8, Gln-Lys-Gln-Met-Ser-Asp-Arg-Arg-Glu (SEQ ID NO:17)
T8 chain: QKQMSDRRE

[11] = target: T9, Ile-Ala-Arg-Arg-His-Pro-Tyr-Phe-Leu (SEQ ID NO:11)
T9 chain: IARRHPYFL

Aprotinin (from UniProt P00974 36-93)
% of residual activity of DPP-7 against H-Ala-Phe-pNA after preincubation with 0.5 mg/ml inhibitor [1]: 128%

B1: Arg-Phe (peptide)
peptide: RF
% of residual activity of DPP-7 against H-Ala-Phe-pNA after preincubation with 100 mM compound [2]: 69%

B2: Ala-Gly (peptide)
peptide: AG
% of residual activity of DPP-7 against H-Ala-Phe-pNA after preincubation with 100 mM compound [2]: 96%

B3: Gly-Ala (peptide)
peptide: GA
% of residual activity of DPP-7 against H-Ala-Phe-pNA after preincubation with 100 mM compound [2]: 102%

B4: Porphyromonas gingivalis dipeptidylpeptidase-7 (DPP-7), purified from strain HG66 (protein)
chain: T1 sequence
endopeptidase activity (azocazein): did not show any endopeptidase activity
Peptides cleaved (hydrolysis products separated by reverse-phase HPLC, mass spectrometry) [3]: Phe-Leu-↓-Arg-Glu-Pro-Val-Ile-Phe-Leu
Peptides cleaved (hydrolysis products separated by reverse-phase HPLC, mass spectrometry) [4]: Lys-Ile-↓-Ala-Gly-Tyr-His-Leu-Glu-Leu
endopeptidase activity [5]: did not show any endopeptidase activity
Peptides not cleaved (reverse-phase HPLC, mass spectrometry) [6]: Peptides not cleaved
endopeptidase activity (insulin β chain): did not show any endopeptidase activity
Peptides not cleaved (reverse-phase HPLC, mass spectrometry) [7]: Peptides not cleaved
Peptides cleaved (hydrolysis products separated by reverse-phase HPLC, mass spectrometry) [8]: Trp-Ala-↓-Gly-Gly-Asp-Ala-Ser-Gly-Glu
endopeptidase activity (gelatin): did not show any endopeptidase activity
Peptides not cleaved (reverse-phase HPLC, mass spectrometry) [9]: Peptides not cleaved
Peptides not cleaved (reverse-phase HPLC, mass spectrometry) [10]: Peptides not cleaved
Peptides cleaved (hydrolysis products separated by reverse-phase HPLC, mass spectrometry) [11]: Ile-Ala-↓-Arg-Arg-His-Pro-Tyr-Phe-Leu
endopeptidase activity (type I collagen): did not show any endopeptidase activity
